{"source": "paper PMC7340271", "about": "(IUCrJ, 2020)", "proteins": {"B1": {"name": "N-terminal lipid-binding domain of Mycobacterium tuberculosis Wag31 (residues 2-60) (domain or fragment)", "chain": "PLTPADVHNVAFSKPPIGKRGYNEDEVDAFLDLVENELTRLIEENSDLRQRINELDQEL", "notes": "Assembly states reported: parallel coiled-coil dimer (asymmetric unit), tetramer ('dimer-of-dimers'); also called N-Wag31; N-terminal Wag31"}}, "target": "the molecule itself", "assay": "crystal structure", "note": "“And” between values parts separate entries of the source, which are not always exact repeats. Identical values can stand only once.", "data": [{"protein": "B1", "values": [{"measurement": "stoichiometry N", "value": "2 and 4"}]}]}
